B1: PMS134: dominant negative mismatch repair protein, expressed from pIRES-PMS134-TK with a C-terminal V5 tag (protein, listed as Homo sapiens)
chain: RGGSGVASMERAESSSTEPAKAIKPIDRKSVHQICSGQVVLSLSTAVKELVENSLDAGATNIDLKLKDYGVDLIEVSDNGCGVEEENFEGLTLKHHTSKIQEFADLTQVETFGFRGEALSSLCALSDVTISTCHASAKVGT
modifications: C-terminal V5 tag

Experiments:
[1] = test system: cells expressing the HSV-TK gene product; assay: Negative selection with ganciclovir of cultures containing pIRES-PMS134-TK; type: cell-based, human; details: HEK293 cultures with pIRES-PMS134-TK; ganciclovir for 5 days, then 10 days in growth media alone
Experimental: Once a hypermutable cell line is developed, it can be screened for to identify subclones with novel phenotypes for target discovery and/or product development. Once the subclone with a desired phenotype is identified, it is important to be able to restore the DNA stability within the host cell. In order to accomplish this, one must remove or completely suppress the expression of the mutator gene. Briefly, cultures are grown in the presence of the prodrug ganciclovir (Sigma), which kills cells expressing the HSV-TK gene product for 5 days. After 5 days, cells are grown for 10 days in growth media alone at which time greater than 95% of cells die off. Resistant clones are then picked and expanded in 10 cm petri dishes. Cells are grown for 3 weeks and then a portion is analyzed for PMS134 expression by western blot and RT-PCR. […] Analysis of cells after two months of culture have not observed re-expression of the PMS 134 gene using western or RT-PCR analysis (not shown). […] No de novo instable microsatellites are observed in the GR cells in contrast to the parental IRES-PMS134-TK line as expected.

[2] = test system: 293 cells; assay: Microsatellite instability of endogenous loci using the BAT26 diagnostic marker; type: cell-based, human; details: PMS134 expressing 293 cells
Experimental: Next, selected clones expressing PMS134 are expanded and analyzed for MMR deficiency using methods as previously described. Briefly, cells containing the pIRES-PMS134-TK vector or control were measured for microsatellite instability of endogenous loci using the BAT26 diagnostic marker as described (Hoang J. M. et al. (1997) Cancer Res. 57:300-303). Cells are harvested and genomic DNA is isolated using the salting out method (Nicolaides, N. C. et al. (1991) Mol. Cell. Biol. 11:6166-6176). DNAs are diluted by limiting dilution to determine the level of sensitivity of the assay. DNAs are PCR amplified using the BAT26F: 5′-[…]-3′ (SEQ ID NO: 25) and the BAT26R: 5′-[…]-3′ (SEQ ID NO: 26) primers in buffers as described (Nicolaides, N. C. et al. (1995) Genomics 30:195-206). Briefly 1 pg to 100 ngs of DNA is amplified using the following conditions: 94° C. for 30 sec, 58° C. for 30 sec, 72° C. for 30 sec for 30 cycles. PCR reactions are electrophoresed on 12% polyacrylamide TBE gels (Novex) or 4% agarose gels and stained with ethidium bromide.
To measure for microsatellite stability in 293 cells, DNAs were amplified using the reaction conditions above.

Molecule	cells die off [1]	effect on mismatch repair (MMR) ([2]; biochemical and genetic manifestations of MMR deficiency)	microsatellite instability (altered BAT26 alleles) ([2]; no altered alleles in MMR-proficient control cells)
Nc1nc(O)c2ncn(COC(CO)CO)c2n1 [ganciclovir]	greater than 95%	–	–
B1	–	robust dominant negative effect	a number of alterations

Reference: patent publication US20030165468A1, “Regulated vectors for controlling DNA hypermutability in eukaryotic cells” (priority 2002, published 2003)
